Several values for one entry are separate records, joined by “and”; a condition that tells them apart may be missing. Equal entries are not always repeated.
Key:
[1] = molecular target: Rabbit skeletal muscle actin (G-actin) (rabbit) (UniProt P68135); assay: SEC-SAXS
[2] = molecular target: G-actin (Oryctolagus cuniculus) (UniProt P68135); settings: cited from earlier work

Question: With “R. bellii MBP-Sca2/6 (maltose-binding protein tagged passenger domain of Sca2/6) (domain or fragment)” as the substance, how does the stoichiometry N [1] read?
Answer: The stoichiometry N was 1.

Question: With Sca2 (from UniProt Q92JF7) as the substance, how does the Kd [2] read?
Answer: Its Kd is 20 nM and 200 nM.

— paper PMC13137875
